Where no end group is shown, it is not given here. The star is where a group is joined. Farnesyl = CC(C)=CCC/C(C)=C/CC/C(C)=C/C*
Columns and labels:
[1] = target: calmodulin (CaM), full-length, amino acids 2-148 (human, UniProt P0DP23 2-148); assay: ITC
[2] = target: calmodulin (CaM), full-length, amino acids 2-148 (human, UniProt P0DP23 2-148); assay: ITC; remark: listed apart in the source

Binder	Kd [1] [nM]	Kd [2] [nM]
HKEKMSKDGKKKKKKSKTKC(Farnesyl)-OMe [HVR-FMe (hypervariable region of KRAS4b, farnesylated and carboxy-methylated)]		300
KSKTKC(Farnesyl)-OMe [KSKTKC-FMe]	400	

Other lines, results leading:

Kd [1] [nM]	Kd [2] [nM]	Binder
3000		KSKTKC(geranyl) (not fully specified (C-terminus); also: methylated (site not given here)) [KSKTKC-geranyl methylated (KSKTKC-GMe)]
30000		KSKTKC (not fully specified; cysteine with a five-carbon prenyl group, methylated (PMe)) [KSKTKC-prenyl methylated (KSKTKC-PMe)]
